Measurements reported in patent US20250122298A1 (published 2025).

Key:
[1] = biological target: T1, recombinant cynomolgus TfR-1 (cynomolgus, UniProt H9EXL1 89-760); test: ELISA
T1 chain: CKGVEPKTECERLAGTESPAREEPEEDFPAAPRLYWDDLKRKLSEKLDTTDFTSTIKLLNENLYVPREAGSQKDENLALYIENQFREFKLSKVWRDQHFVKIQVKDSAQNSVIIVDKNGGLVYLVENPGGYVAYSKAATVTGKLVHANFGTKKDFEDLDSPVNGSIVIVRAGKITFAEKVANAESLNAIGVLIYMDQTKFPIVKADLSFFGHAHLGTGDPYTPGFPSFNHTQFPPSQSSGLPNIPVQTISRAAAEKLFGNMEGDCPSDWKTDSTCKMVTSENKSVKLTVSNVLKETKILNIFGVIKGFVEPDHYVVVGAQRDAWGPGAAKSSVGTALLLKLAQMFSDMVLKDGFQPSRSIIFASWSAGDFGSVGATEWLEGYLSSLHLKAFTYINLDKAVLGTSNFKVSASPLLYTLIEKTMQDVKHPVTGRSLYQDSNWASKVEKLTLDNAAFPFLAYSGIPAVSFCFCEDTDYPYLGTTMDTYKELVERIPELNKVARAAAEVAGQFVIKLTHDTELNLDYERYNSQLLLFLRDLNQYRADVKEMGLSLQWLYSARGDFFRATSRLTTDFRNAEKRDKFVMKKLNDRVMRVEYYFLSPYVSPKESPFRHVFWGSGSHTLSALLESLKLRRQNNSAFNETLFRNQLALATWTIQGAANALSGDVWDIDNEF

[2] = biological target: recombinant human TfR-1 (human, UniProt P02786 89-760); test: ELISA

B1: R2D4 (Fc fusion)
chain: ARVDQTPQTATKETGESLTINCVLRDSNCALSSTYWYRKKSGSTNEENISKGGRKYVETVESGSKSFSLKINDLTVEDSGTYRCNVVGTWCMSWRDVSGDGTVVTVNA
[1]
  EC50: 3 nM
[2]
  EC50: 4.1 nM
